Assays:
[1] = molecular target: T1, TLR4 stably expressed on HEK293 cells (HEK/TLR4) (UniProt O00206 24-839, limits assumed); test: cell-based or functional assay
[2] = molecular target: T1, TLR4 stably expressed on HEK293 cells …; test: inferred from dose-dependent inhibition of HEK/TLR4 activation by the wt complex (IL-8)
[3] = molecular target: T1, TLR4 stably expressed on HEK293 cells …; test: competition: excess free MD-2 against ^3H-LOS:MD-2 on HEK/TLR4 cells, liquid scintillation
[4] = molecular target: T1, TLR4 stably expressed on HEK293 cells …; test: inferred from intermediate inhibition of HEK/TLR4 activation by LOS:MD-2 (IL-8)
[5] = molecular target: T1, TLR4 stably expressed on HEK293 cells …; test: cell association of radiolabelled complex with HEK/TLR4 cells, overnight 37 C, liquid scintillation (FIG. 3)

T1 sequence (O00206 24-839 limits assumed): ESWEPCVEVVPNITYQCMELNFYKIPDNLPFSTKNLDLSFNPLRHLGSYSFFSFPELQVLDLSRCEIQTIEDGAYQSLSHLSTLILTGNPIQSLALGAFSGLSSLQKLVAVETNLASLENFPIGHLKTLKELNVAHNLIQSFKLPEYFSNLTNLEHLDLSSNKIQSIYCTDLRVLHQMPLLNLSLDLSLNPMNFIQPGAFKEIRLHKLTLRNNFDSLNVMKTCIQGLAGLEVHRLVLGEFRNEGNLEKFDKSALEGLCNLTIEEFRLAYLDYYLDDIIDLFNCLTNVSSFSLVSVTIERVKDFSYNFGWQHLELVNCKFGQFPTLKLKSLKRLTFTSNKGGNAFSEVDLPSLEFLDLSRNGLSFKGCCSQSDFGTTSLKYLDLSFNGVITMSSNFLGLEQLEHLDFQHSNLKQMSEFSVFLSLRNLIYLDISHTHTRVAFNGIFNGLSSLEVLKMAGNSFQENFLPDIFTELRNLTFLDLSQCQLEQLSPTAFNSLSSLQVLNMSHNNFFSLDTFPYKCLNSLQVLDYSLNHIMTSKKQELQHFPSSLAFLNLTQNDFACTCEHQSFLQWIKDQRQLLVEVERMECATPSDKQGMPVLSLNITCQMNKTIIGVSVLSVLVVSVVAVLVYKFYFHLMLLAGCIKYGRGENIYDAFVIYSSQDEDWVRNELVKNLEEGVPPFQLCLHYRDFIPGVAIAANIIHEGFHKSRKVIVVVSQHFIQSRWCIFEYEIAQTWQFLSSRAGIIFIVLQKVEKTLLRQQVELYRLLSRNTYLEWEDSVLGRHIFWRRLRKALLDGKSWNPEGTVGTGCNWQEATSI

B1: E:MD-2 K125A.F126A (monomeric complex of wild-type endotoxin with MD-2 mutant K125A.F126A) (ligand)
chain: QKQYWVCNSSDASISYTYCDKMQYPISINVNPCIELKRSKGLLHIFYIPRRDLKQLYFNLYITVNTMNLPKRKEVICRGSDDDYSFCRALKGETVNTTISFSFKGIAASKGKYKCVVEAISGSPEEMLFCLEFVILHQPNSN
In the case of B1, the “activation (IL-8) of HEK/TLR4 cells relative to wt E:MD-2” value [1] is reported as roughly 10%.

B2: E:MD-2 (F126A) (monomeric complex of wild-type LOS with MD-2 mutant F126A) (ligand)
chain: QKQYWVCNSSDASISYTYCDKMQYPISINVNPCIELKRSKGLLHIFYIPRRDLKQLYFNLYITVNTMNLPKRKEVICRGSDDDYSFCRALKGETVNTTISFSFKGIKASKGKYKCVVEAISGSPEEMLFCLEFVILHQPNSN
notes: also called LOS:MD-2 (F126A); F126A MD-2 mutant
B2: binds [2].

B3: soluble recombinant wild-type MD-2-His6 (not complexed to endotoxin), in dialyzed conditioned insect cell medium (other, human)
chain: QKQYWVCNSSDASISYTYCDKMQYPISINVNPCIELKRSKGLLHIFYIPRRDLKQLYFNLYITVNTMNLPKRKEVICRGSDDDYSFCRALKGETVNTTISFSFKGIKFSKGKYKCVVEAISGSPEEMLFCLEFVILHQPNSNHHHHHH
notes: Used as unpurified conditioned medium (about 10 ng MD-2 per microliter after concentration); also called wt MD-2; rMD-2
B3: binds [3].

B4: soluble recombinant C95Y mutant MD-2-His6, in dialyzed conditioned insect cell medium (other, human)
chain: QKQYWVCNSSDASISYTYCDKMQYPISINVNPCIELKRSKGLLHIFYIPRRDLKQLYFNLYITVNTMNLPKRKEVIYRGSDDDYSFCRALKGETVNTTISFSFKGIKFSKGKYKCVVEAISGSPEEMLFCLEFVILHQPNSNHHHHHH
notes: also called C95Y MD-2
B4: binds [4].

B5: LOS:sCD14 complex (monomeric complex of N. meningitidis lipooligosaccharide with soluble CD14, Mr ~60,000) (other)
chain: TTPEPCELDDEDFRCVCNFSEPQPDWSEAFQCVSAVEVEIHAGGLNLEPFLKRVDADADPRQYADTVKALRVRRLTVGAAQVPAQLLVGALRVLAYSRLKELTLEDLKITGTMPPLPLEATGLALSSLRLRNVSWATGRSWLAELQQWLKPGLKVLSIAQAHSPAFSCEQVRAFPALTSLDLSDNPGLGERGLMAALCPHKFPAIQNLALRNTGMETPTGVCAALAAAGVQPHSLDLSHNSLRATVNPSAPRCMWSSALNSLNLSFAGLEQVPKGLPAKLRVLDLSCNRLNRAPQPDELPEVDNLTLDGNPFLVPGTALPHEGSMNSGVVPACARSTLSVGVSGTLVL
notes: also called ^3H-LOS:sCD14; endotoxin:sCD14
B5: no binding (tested: 0.75 ng/ml ^3H-LOS) [5].
